For experiment [1], the target named is human FcRn. The experiment in a line: SPR; pH 6.2. Background: Surface plasmon resonance follows binding to a sensor surface in real time, without labels.
In experiment [2] the target is mouse CD16-2. The experiment in a line: SPR.
For experiment [3], the target named is mouse CD64. The experiment in a line: SPR.
In experiment [4] the target is mouse CD16. The experiment in a line: SPR.
For experiment [5], the target named is mouse CD16-2. The experiment in a line: SPR. This is another data set of the same source.
The target in experiment [6] is mouse CD64. The experiment in a line: SPR. The source holds these as a separate data set.
Experiment [7] deals with mouse CD16. Briefly: SPR. This is another data set of the same source.
The target in experiment [8] is T1, human CD64 (FcgRI) (human, UniProt P12314 16-374, biotin (biotinylated Fc receptors)). Briefly: SPR.
T1 sequence (P12314 16-374): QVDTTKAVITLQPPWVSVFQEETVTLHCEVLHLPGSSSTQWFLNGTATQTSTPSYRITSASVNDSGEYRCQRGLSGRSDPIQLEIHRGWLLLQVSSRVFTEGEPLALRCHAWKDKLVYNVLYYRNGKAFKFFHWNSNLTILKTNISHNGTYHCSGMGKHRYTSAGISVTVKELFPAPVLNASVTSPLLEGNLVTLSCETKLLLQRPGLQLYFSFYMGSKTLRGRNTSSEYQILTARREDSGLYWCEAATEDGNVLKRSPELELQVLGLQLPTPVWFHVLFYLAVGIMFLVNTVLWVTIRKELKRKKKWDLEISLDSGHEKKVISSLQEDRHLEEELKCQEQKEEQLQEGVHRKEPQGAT
The target of experiment [9] is human FcRn. The experiment in a line: SPR; pH 6.2. The source holds these as a separate data set.
In experiment [10] the target is T1, human CD64 (FcgRI). The experiment in a line: SPR. This is another data set of the same source.

B1: Ab11 IgGh47 (antibody)
chain 1: QVTLKESGPVLVKPTETLTLTCTVSGFSLSNAKMGVSWIRQPPGKALEWLAHIFSNDEKSYSTSLKSSLTISKDTSKSQVVLTMTNMDPVDTATYYCARLLWFGGNYFDYWGQGTLVTVSS
chain 2: not shown
The term Kd denotes the constant that tells how readily two partners part at equilibrium. Low readings indicate tighter binding, high ones weaker binding. The term koff denotes a measure of how fast the partners let go of each other. A higher koff goes with a short-lived complex. Consider B1, for which the Kd in experiment [1] was 7.1 nM; in experiment [5], 24 nM; in [6], 7 nM; in experiment [7], 15 nM; in experiment [8] it was 2.1 nM. For the same molecule, the dissociation rate constant (koff) was found to be 0.0018 s⁻¹ in experiment [2]; 0.00083 s⁻¹ in [3]; 0.00074 s⁻¹ in experiment [4]; 0.00048 s⁻¹ in [9]; 0.00017 s⁻¹ in experiment [10].

Values taken from paper PMC11055898 (2024).
